According to US20100190710A1, “IL-23 RECEPTOR ANTAGONISTS AND USES THEREOF” (Valorisation HSJ, Societe en Commandite, priority 2007, published 2010):
Entries after “also recorded” stand apart in the source; their conditions may differ. Square brackets hold non-standard residues; d marks the D form. Ends that are not written are not given here.

T1: IL-23 receptor (Homo sapiens, UniProt Q5VWK5)
T1 sequence (Q5VWK5 24-629): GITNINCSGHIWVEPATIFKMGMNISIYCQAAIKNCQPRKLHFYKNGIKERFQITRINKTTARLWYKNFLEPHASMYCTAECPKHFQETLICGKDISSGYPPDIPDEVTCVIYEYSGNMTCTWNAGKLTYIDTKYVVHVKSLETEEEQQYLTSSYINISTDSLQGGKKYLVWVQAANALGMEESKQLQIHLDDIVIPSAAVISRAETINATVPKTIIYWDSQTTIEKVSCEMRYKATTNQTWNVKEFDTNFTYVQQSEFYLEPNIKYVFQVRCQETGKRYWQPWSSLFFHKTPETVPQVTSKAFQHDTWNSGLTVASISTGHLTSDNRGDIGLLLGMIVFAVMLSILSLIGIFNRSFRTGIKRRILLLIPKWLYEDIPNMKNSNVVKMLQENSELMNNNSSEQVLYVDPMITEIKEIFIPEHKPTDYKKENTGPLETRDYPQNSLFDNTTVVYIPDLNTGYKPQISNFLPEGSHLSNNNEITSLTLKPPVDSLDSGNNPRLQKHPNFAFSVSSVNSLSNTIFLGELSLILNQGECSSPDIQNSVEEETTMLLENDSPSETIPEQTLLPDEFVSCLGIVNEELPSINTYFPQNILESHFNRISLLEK

T2: IL-23R (Mus musculus, UniProt Q8K4B4)
T2 construct: Spleens were sterilely removed from mice, sliced, and mashed in the presence of PBS buffer; from tissue; host or cells: mouse spleen: freshly isolated splenocytes, and CD4+ cells differentiated into TH17 cells
T2 sequence (Q8K4B4 24-644): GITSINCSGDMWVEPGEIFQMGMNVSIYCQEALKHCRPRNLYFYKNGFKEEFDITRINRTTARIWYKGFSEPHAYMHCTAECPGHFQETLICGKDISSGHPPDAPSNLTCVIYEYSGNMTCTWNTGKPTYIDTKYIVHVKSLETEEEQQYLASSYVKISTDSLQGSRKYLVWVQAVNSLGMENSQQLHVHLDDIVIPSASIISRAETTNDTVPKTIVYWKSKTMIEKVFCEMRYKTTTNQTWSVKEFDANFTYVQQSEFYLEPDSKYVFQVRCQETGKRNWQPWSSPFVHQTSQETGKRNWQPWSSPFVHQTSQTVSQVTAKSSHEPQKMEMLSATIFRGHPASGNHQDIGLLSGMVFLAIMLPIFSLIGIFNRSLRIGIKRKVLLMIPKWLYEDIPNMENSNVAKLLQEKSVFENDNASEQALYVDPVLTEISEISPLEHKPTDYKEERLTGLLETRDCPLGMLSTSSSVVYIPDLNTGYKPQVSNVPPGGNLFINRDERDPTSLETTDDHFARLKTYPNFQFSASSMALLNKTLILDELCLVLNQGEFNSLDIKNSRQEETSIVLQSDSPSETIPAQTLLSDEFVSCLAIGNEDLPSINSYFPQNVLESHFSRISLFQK

T3: mouse IL-23 receptor (IL-23R) on mouse splenocytes and differentiated TH17 cells (mouse, UniProt Q8K4B4 24-644)
T3 sequence (looked up): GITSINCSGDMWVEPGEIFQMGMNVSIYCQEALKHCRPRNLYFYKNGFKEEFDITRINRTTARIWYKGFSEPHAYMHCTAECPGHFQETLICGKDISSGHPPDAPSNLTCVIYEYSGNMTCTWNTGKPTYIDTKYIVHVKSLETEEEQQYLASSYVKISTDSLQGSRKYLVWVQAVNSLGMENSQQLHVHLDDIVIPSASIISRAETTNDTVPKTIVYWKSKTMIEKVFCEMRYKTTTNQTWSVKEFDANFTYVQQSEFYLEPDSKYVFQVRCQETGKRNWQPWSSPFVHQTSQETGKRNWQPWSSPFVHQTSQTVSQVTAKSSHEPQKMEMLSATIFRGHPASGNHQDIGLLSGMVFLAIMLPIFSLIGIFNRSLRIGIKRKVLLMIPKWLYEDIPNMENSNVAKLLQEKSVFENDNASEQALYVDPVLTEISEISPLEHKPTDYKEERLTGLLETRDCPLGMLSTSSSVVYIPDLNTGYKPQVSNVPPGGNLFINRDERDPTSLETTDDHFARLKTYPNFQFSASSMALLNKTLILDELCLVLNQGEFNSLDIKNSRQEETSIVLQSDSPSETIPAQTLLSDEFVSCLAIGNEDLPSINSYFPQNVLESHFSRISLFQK

T4: human IL-23 receptor (IL-23R) on PMA-activated HL-60 human monocytes (human, UniProt Q5VWK5 24-629)
T4 sequence (looked up): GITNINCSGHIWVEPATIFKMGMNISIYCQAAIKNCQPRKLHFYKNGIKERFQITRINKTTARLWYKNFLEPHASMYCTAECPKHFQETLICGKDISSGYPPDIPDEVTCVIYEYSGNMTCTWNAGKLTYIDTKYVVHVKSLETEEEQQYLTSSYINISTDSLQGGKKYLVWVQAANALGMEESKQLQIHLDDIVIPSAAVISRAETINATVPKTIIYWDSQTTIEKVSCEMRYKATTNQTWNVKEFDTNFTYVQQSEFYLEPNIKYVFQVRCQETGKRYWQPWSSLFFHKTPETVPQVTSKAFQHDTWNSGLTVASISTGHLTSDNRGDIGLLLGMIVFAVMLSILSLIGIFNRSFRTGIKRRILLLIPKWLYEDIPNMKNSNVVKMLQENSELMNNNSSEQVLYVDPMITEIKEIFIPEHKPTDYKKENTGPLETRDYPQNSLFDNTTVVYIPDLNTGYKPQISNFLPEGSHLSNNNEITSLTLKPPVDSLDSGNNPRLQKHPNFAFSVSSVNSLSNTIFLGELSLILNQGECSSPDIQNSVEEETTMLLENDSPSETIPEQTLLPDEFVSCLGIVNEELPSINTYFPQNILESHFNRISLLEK

B1: peptide APG-2309 (peptide)
peptide: [dM][dE][dE][dS][dK][dQ][dL][dQ][dL]
B2: APG-2305-13 (peptide)
peptide: TEEEAAYL

Columns and labels:
IL-23 receptor = target: T1, IL-23 receptor; experiment: IL-23-induced STAT3 phosphorylation in PMA-activated HL-60 monocytes (Western blot); type: cell-based; design: endogenous in cells; details: PMA-activated HL-60 human monocytes; peptide 1 μM, 30 min pre-incubation; IL-23 10 ng/ml, 15 min
Experimental: FIG. 2 is a graph showing the results of efficacy screening of peptides designed from the IL-23 receptor. HL-60 human monocytes were pre-incubated for 30 minutes with the particular peptides (1 μM) and stimulated for 15 minutes with IL-23 (10 ng/ml). Western Blot analysis of phosphorylated-STAT3 and total STAT3 was performed on cell lysates. Immunoblot densitometry was measured using ImagePro4+ software. […] FIGS. 3A and 3B are graphs showing inhibition of IL-23-induced STAT3 phosphorylation and TNFα generation. […] Western Blot analysis was performed on cell lysates, and immunoblot densitometry was measured using ImagePro4+ software. […] TNFα production was quantified by ELISA 24 hours after stimulation with IL-23 using the Quantikine ELISA Kit (R&D systems). […] D-peptides 2303, 2305, 2307 and 2309 (1 μM) inhibit IL-23-induced STAT3 phosphorylation in phorbol 12-myristate 13-acetate (PMA)-activated human monocytes (HL-60) (FIG. 2).

IL-23R = target: T2, IL-23R; experiment: IL-23-induced STAT3 phosphorylation in freshly isolated splenocytes (Alpha Screen SureFire p-STAT-3); type: cell-based
Experimental: Spleens were sterilely removed from mice, sliced, and mashed in the presence of PBS buffer, 2% fetal bovine serum, and 1 mM EDTA. Tissue was allowed to pass through a number 26 syringe and was filtered through a 70 μm mesh nylon strainer. Cells were cultured with non-essential amino acids, 2 μg/ml of anti-CD3, and 20 μg/ml of anti-CD-28 as survival and differentiation factors.
Splenocytes or TH17 cells were distributed in 384-well plates (Optiplate; Perkin Elmer) (100,000 cells/well). Cells were pre-incubated for 30 minutes with different concentrations of peptide APG-2305 or APG-2309 and incubated with 25 ng/ml of IL-23 (R&D systems) for 10 minutes. STAT3 phosphorylation was determined with the kit Alpha Screen SureFire p-STAT-3 assay from Perkin Elmer according to manufacturer's instructions. Briefly, after incubation with IL-23, cells were lysed and contacted with (1) protein A acceptor conjugated beads coated with anti-p-STAT-3 (Tyr705) and (2) streptavidin-coated donor beads. The resulting signal was measured with a Perkin Elmer Wallac En vision 2104 Multilabel reader. Graphs were generated using GraphPrism 4 software.
The effect of peptide APG-2305 and APG-2309 derivatives on IL-23-induced STAT3 phosphorylation was determined using CD-1 mice freshly isolated splenocytes and the Alpha Screen p-STAT3 assay (see above materials and methods) (FIGS. 6 and 7). […] As described herein, based on the efficacy of derivatives, we have identified regions in APG-2305 and APG-2309 peptides that are important for their ability to affect IL-23R activity.

[1] = target: T3, mouse IL-23 receptor (IL-23R) on mouse …; experiment: cell-based or functional assay
[2] = target: T4, human IL-23 receptor (IL-23R) on …; experiment: cell-based or functional assay
[3] = mouse splenocytes (FIGS. 6 and 7)

Molecule | activity of derivative compared to parent peptide, STAT3 phosphorylation assay (IL-23R; [3]) | also measured
DLSSGYPPDI [Peptide 2301] |  | effect on IL-23-induced STAT3 phosphorylation (IL-23 receptor): agonistic properties; also recorded: agonist of IL-23R biological activity
EEQQYL [Peptide 2305-5] | measurable loss of activity | 
EQQYL [Peptide 2305-6] | measurable loss of activity | 
ESKQLQL [Peptide 2309-3] | increases the activity | 
KKYLVWVQ [Peptide 2307] |  | effect on IL-23-induced STAT3 phosphorylation (IL-23 receptor): antagonize IL-23-induced STAT3 phosphorylation; also recorded: demonstrable efficacy; also recorded: inhibit
LPDEVTCV [Peptide 2303] |  | effect on IL-23-induced STAT3 phosphorylation (IL-23 receptor): antagonize IL-23-induced STAT3 phosphorylation; also recorded: demonstrable efficacy; also recorded: inhibit
LVLDDLHLQLQKSEEMGLANAAQV (not fully specified (some residues); also: D-amino acids, extent not given here) [Peptide 2309-2-1] | better efficacy than the parent 2309 peptide | 
MAESKQLQL [Peptide 2309-1] | increases the activity | 
TEEAQQYL [Peptide 2305-1] | total loss of activity | 
TEEE [Peptide 2305-11] | increased the activity | 
TEEEQ [Peptide 2305-10] | increased the activity | 
TEEEQQ [Peptide 2305-9] | abolished the activity | 
TEEEQQY [Peptide 2305-8] | abolished the activity | 
VQAANALGMEESKQLQLHLDDLVL [Peptide 2309-1-1, extended region of peptide 2309 covering part of the loop in D3 domain of IL-23R] |  | inhibition of STAT3 phosphorylation by derivative (IL-23R; mouse splenocytes (FIG. 7)): 100%; increase in activity relative to the parent peptide (IL-23R; [3]): 50%
B1 |  | IC50 for IL-23-induced STAT3 phosphorylation in mouse splenocytes (25 ng/ml mouse IL-23) [1]: 2 nM; inhibition of IL-23-induced STAT3 phosphorylation in PMA-activated HL-60 monocytes, IC50 [2]: 2 nM; inhibition of IL-23-induced tumor necrosis factor (TNF) formation in PMA-activated HL-60 monocytes (ELISA), IC50 [2]: 1.6 nM
B2 |  | inhibition of IL-23-induced STAT3 phosphorylation in mouse splenocytes (FIG. 6), change relative to parent 2305 [1]: 25%
